Results on 16 sequences are retold here after a protein production outcome set (Wang et al. 2014).

A short description of the series: label from the status in PepcDB records.
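Further: failed if final PepcDB status was selected cloned or expressed and not failed if soluble or beyond.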

For the sequence “MTADGRGRIDAAFRGRLGRFVLDASLSVPATGVTAIFGPSGCGKTTIARCIAGLQRLSDGFCAIDGEIWQDGMAFRPAHRRPVGYVFQEPSLFPHLSVRGNLLYGAPKAAATSIGFDEVVELLGLTALLGRSPHRLSGGERQRVAIGRALLSQPRLLLMDEPLAALDRTTKNEILPFLERLHERLSLPVLYISHDMAEIERFADYLVLMERGRVVGAGPLHILQSDPALPLAYSRDAAVSIDGLVEAYDERYGLLTLAVNGGLLHVPSHRIAVGARQRLRIAASDVSIVRARPSESSILNILPARIVTQSPPGAGEVTIVLGLDSDGSGAPILSRISSRSRDLLGLSDGMAVFAQVKGVSLVRASGCAIGNMGPTAPGQLDHCSTQDTGVRSEAGTTAMPIDFAEIDPNRVAAILYRPQDDLDTLLADFAQDLVRAGERIGGIVQRNIKDGSGCQVGMQAIDLMTGREISICQPLGSGAMACKLDAAGLADASVAVASAIAQDVDLIVINKFSKQEAAGRGLRDELAGAIAAGIPVLTAVPEKCFEAWISFTGGIGTTLLCERQVIEAWWRDTSSRMKRMREDHDAVVAQCIEISGALPLVQRVVARQLVVTHDLPLDPERAEAEVVVRGVVERTNVEVLDGAADEADEAPDAGFPVGPERIERLPDIGPVPRRHEALQVEREVLSPDACLQRSAGERVDVFKEGKTKVGTVLVDRGDAELVEGPIVLELHEGAPVLVEMNVGVDLQTLYEIAVRGRVAGAERRCAIGLEAFAQRRPQRDVAFRIGGPKRDVFEPVKRFGTQPGIGKDRPVLCPAVRLDRRPLGDRSVLGPREPDAGAKGRKRQNDPEVAHIAPCQHRRTSPHLASARDALFGPREWISATYPPGNMTNAADRLLDV”, the protein production entry was “failed”.

In the case of “MTADRPLLGIFLMLGFCVLAPMGDALAKLLGGTMPTMQLLLVRFAIQAVILIPLVQATGRPWQLRGRLLRLTALRTLLHIVGIWAMFTALRYLPLADAIAIAFVMPFIMLLLGKYVLGEEVGPRRLGACIVGFAGTLLVIQPSFAEVGLPALLPLLVAVVFALFMLVTRQLAKDTDPIALQAVSGVMACVALTPVLLIGHAAGVEALTLVTASGTTLWLLLAIGVLGTAAHLLMTWSLRYAPSATLAPMQYLEIPVATAIGWLIFHDLPNGLAALGILITMAAGLYVILREQATARSAATETSG”, the protein production entry is “failed”.

For the sequence “MTADSQTCFCVCTMAVTVTNNQAIDLSRAKAQGRAMAKPLTSHRPILAVSLKLGALVLFTSMSALIKVLSADFPAGEMVFFRSLFAIPVIILWLLARGELRQGLIVKKPMGHFWRGVLGTGAMGLTFTGLGLLPLPEVTAIGYATPIFTLILAALMLGETIRLVRIGAVALGLLGVLIMLWPRLGTGASLDQAATIGALCVLAATVARAFVQIHIRQLVQVDHAAAIVFYFSLTATLLSGLTAFFGWVTPTPEQAAILILTGLVGGVAQILVTSSYRFGQASMLAPYDYASMLFAIIIGYIWFDEWPTLVMLAGAMLVIAGNVVVIWRERQLGLERGKARSVTDPKG”, the protein production result is reported as “failed”.

Take “MTAEPAATSAPLSGPVAVIGCGWVGWPLARALLVAGAEVRGSATTPEKVAALRAEGVAATRLRLTPDTSPESDELTELLRGAHRLVLTVPPGRGPERERYAEYLSPVAQAAALHGVRQLIFTSSTGVYPNDPHVMTESDALATPDSPSPLLRAEAALAAAGVPLTVLRFAGLYGPGRPPGRFLAGRTEVGEGSAPVNLVHLDDCVGAVQHMLGGDFGGQTFNVCAAAHPLRRDFYPAAARALGLEAPSFAPHEGGGKIIGSEAFRAATGYHFRHDDPLSDLHTLGNGQGA”: the protein production result is “failed”.

On to “MTAEQLIEKYKNPAIIGLGVIVALIAAFVFYKYNQSENNTVAQEEMYKAVFYFEQDSLELALKGDEAKGIRGLQEVADEYSGTKAGKLAAFYTGIIYLKQAKFQESIDYLEKFSSNEGILQARSWAAMGDAYSELNDLENAIKYYKKAADHKGNEQITPTYLMKLGLAYELNNNWKDASDAYDKIITDYPKSQDVADAKKYKAKAQAALSASE”, for which the protein production result was “failed”.

With “MTAETSQTLDRGLRVLKLLADTDHGLTVTELSHKLGVNRTVVYRLLATLEQHALVRRDLGGRARVGLGVLGLGRQVHPLVREAAMPALRALAEDIGATAHLTLVDGAEALAVAVVEPTWTDYHVAYRAGFRHPLERGAAGKAILAARQPSQPTGGEAVDDPGYTLTHGELEAGACGAAAPLLGVTGVEGSVGVVMLADVVPERVGERVKHAAREVAEALR”, the protein production result is on record as “failed”.

Turning to “MTAILLHNVAKSYRSYDHPWETLWEVFTKTRRHREWTALHPLSLEIAHGEVVGIVGTNGAGKSTLLKLIAGTLTPSAGDIRVNGHVAALLELGAGFHPDMTGRENVYLGASVMGLSSERVDRLYDGIVEFAGLGEFMDQPVKTYSSGMYMRLAFAVATAADPDVLILDEALSVGDGAFARKSFERIIGYKDAGKTILFCSHSLYQVEAICSRVLWLDHGRLVMDGEPARVVSAYAEFLGGGGEGCGTPDQPAPAAVAGSGVGRLTKVEVEADGVEGRKLTVRSGQTDLTVAVGFASDPALPPPSVGLTITGSNGWAVTSASTSNDGLTISRRPDGSGEVELSFPRFPLLKGAYWVNVFLLCEQGIHLYDRIEHAAELEVVQDGLEQGVVSLPRRWSVNGAPASAVSPTVPTVAAWLEHHHHHH”, the protein production entry is listed as “failed”.

As to “MTAIYIGVMTGTSMDGVDFVAASFDPLHIHATLTLPFEPALRDELMALTLPGDNEIDRMGKADVGLAKLIGHGINMLIEQNHLDRHVIKAIGSHGQTIRHRPEHGFTLQIGDPHIITELTGIPVISDFRRRDMAAGGQGAPLVPAFHQAIFQHSTIHRVILNLGGIANVSLLPAGNPDGVYGFDTGPANILMDAWCERYTGHPYDENGNWAAYGQPIRALLERLQAHEFFSKKPPKSTGREDFNLDWLDDQLADWRNDELEYDELEDTPENVQATLLKLTTRAIKKAIYRSELDTGEVYVCGGGAYNSHLLEQLRWRLRKHHWSVQSTSVLGLSPTWVEATAFAWLAMRFMQQQSANLPSVTGAAGFRILGTITSV”, the protein production result was “failed”.

In the case of “MTALFFENFAPGHFGRYGPRRVTREEIIAFASEYDPQPMHLDDHAANASMLKGMSGSGWHLSSLMMRMMYDGFIKDTASLGSPGVDEMRWMSPLRPGDDLLLDVEVIEARVSKSRPETGIVTFKCYVRNGHGQMLSEMVSPIIVKRRDAD”, the protein production result is on record as “failed”.

On to “MTALKPALPDYLGNIRIILTRTSHPANIGSAARAMKTMGLHRLTIVTPNLMATPMTENPPVFNPDDVQSFALPEESFILASGAADVLHNAEIVATLDEALADTTIACALTSRRREITAPLQTPRDLVPELLQAANRGEKVALVFGNETFGLSIEEVRACNRLMTINGNPDYFSLNLAQAVQVVCYEIFSQTDSPMTHLQQEDHAATHEQIKGMLAHMESVMDDIGFFNRRNGERLMRRMQSLFGRANTQTEDIDILRGFFNTVSHRIHKKD”, for which the protein production entry is “failed”.

In the case of “MTAPAICNTTETVHGIATSLGAVARQASLPRIVGTVVGITVLVVVALLVPVPTAVELRDWAKSLGAWFPLAFLLVHTVVTVPPFPRTAFTLAAGLLFGSVVGVFIAVVGSTASAVIAMLLVRATGWQLNSLVRRRAINRLDERLRERGWLAILSLRLIPVVPFAAINYAAGASGVRILSFAWATLAGLLPGTAAVVILGDAFAGSGSPLLILVSVCTGALGLTGLVYEIRNYRRQHRRMPGYDDPVREPALI”, the protein production result is on record as “failed”.

For the sequence “MTAPIIITGVGKRIGYALAKHLLAQGHKVIGTYRSHYPSIDELQSLGATLIQCDFYDNAQVQNLIEQLSQYPKFRAIIHNASDWLADNSPEFAAHEVMQRMIQVHVNVPYQMNLALASKLQAGAEGEIGASDIIHITDYVAEKGSAKHIAYAASKAALDNLTLSFAAKLAPEVKVNAIAPAMILFNPSDDEAYRQKTLAKAILPKEAGNHEIIELMEYLLNSRYVTGRSHHVDGGRHLR”, the protein production result was “not failed”.

Take “MTAPKITQKFNEVETKTTEILNKVLTDDRYFTVTSSFKQDATLGIEYYVTKVTPKTTEAKKSMVQKTFAYDFEKSIDPTSSYFGTTNRETVLSMAKRKRSVVAINASGWRSNGEVMGLQIKDGVLYKDYDAAGYTGAEACVFFDDGTMKVYGNREVDADILISKGARNSFAFGIWLVKDSKPRTAQMTTWADLNVKHPRQAIGQRSDGTLVIITVDGRSLRSSGITAYDMPSLFLSEGCINAFLLDGGGSSQTAVEGKYINNISDGIERAVVDTLTISYPDDDTDSRFFEVQEGRGLATSLNRRVEFIESKPTWNVLDLGFSPDGLIDNTAKFKKALSDLSEKGGGKLHFPKGTYLIGKQNTTSASEKIELPSNVSIVGERRSYTKLLRNPNHSLDELLRITDHNYIEGIEIDGNSSVNKSSCRLIAGGNIKSFKMKDCSLVNATDRGVSIHGIGKSITIEGMYISNIANECINVAEGEIIKLIDSEITFSGTALWVGNAANIFTKNNLAKSLKTFVRYKNSQNAICSGNIITNNIDRAIWGSVREAVFSDNVFKQCHSDYHLYFIQEDTGTNDLIVTGNSVYSDVEGTAFIRTPSDIDRRRVSGNVGNIPSLNLDLEHHHHHH”: the protein production entry is “not failed”.

Regarding “MTAREIAEHPFGTPTFTGRSWPLADVRLLAPILASKVVCVGKNYADHIAEMGGRPPADPVIFLKPNTAIIGPNTPIRLPANASPVHFEGELAIVIGRACKDVPAAQAVDNILGYTIGNDVSARDQQQSDGQWTRAKGHDTFCPVGPWIVTDLAPFDPADLELRTVVNGDVKQHARTSLMIHDIGAIVEWISAIMTLLPGDLILTGTPAGVGPIEDGDTVSITIEGIGTLTNPVVRKGKP”, the protein production result is recorded as “failed”.

“MTATGLERSTANAQSLRNDSHQRSFHRFDGLTASSDITLEAVSSVDAIAAADWDACARSGTIVPHPDGAGGACTTATAAYNPFLSHAFFTALEQSGSASPRTGWGPRHLIAKHEGAIVGIVPCYLKSHSQGEYVFDRGWADAYERAGGNYYPKLQVSVPFTPATGPRLLIRDRIDSARVAGALANGLMALCDLSKASSVHVTFARESEWRFLAECGFLQRTDQQFHWHNAGYSSFDDFLATMNSRHRKGIKRERRDAVASGITIHHLTGADITEDAWDAFFEFYIETGSRKWGRPYLTREFYSLIGQSMSEDVLLVMAKRNGRWIAGAINFIGGDTLFGRHWGAIEHHPFLHFEVCYYQAIDFAITRGLKVVEAGAQGEHKIARGYLPQTTYSAHFIADPALRRAIADYLKRERMYVDEMGRELTEAGPFKKGNIADPA”: the protein production entry was “failed”.

Regarding “MTAVSSVYAQRLLITLFLVSFGIYLFVATVTYTPFDPGWMHISSDTQNVSNASGVAGAWIADLMFGFLGWASLLIPIFLFIEAIQIWWPRSFLTRPFRYAAQFFIILATSTLLYLYWNVPADTLENASGGIIGFEVGQSLSGLLTIYGATLFLVAFWVLLITLAFGIQWNRTWATLKATPAYLQDLFYKNVSPNESDYDLTEQPKKTASTSKTTVASEQNHQDQVHDQHLEQTTRTDQKAFDTTTKNFVSDEMVEKLFADVVAKEQYAQQQVQAVNTSIEDPAFEQTIQKAHQLEKEAKRLVPTGEVWKALQTDDSTHKQEIDALLRAADDNEPSVTPMTSDELLANLKAQQAQQNHTQPNNHTAKLNWNDDQIFDELLAAMPNSKIGSDIHTPFVEHREDTTPDHTDHLIQQVEQTLQASSNTLQPKNMTNLDEAEEQSDLLTETVEENPSTHYAGQPQNRSFTSNELTAKDQEKLSKEEFIEAWQETAGKPVEDDFDFDAPLTDASGRPMSRAMQVAQKRRDLPTLPGLELLDKVDPNKKVNFTVEQLERLSELLEIKLQEFNVKAKVVEAQPGPVVTRFELDLAPGVKASKVTNISRDLARSMSMASVRVVEVIPGKPYIGIEVPNSSREMVRLIELLETASFRDPAGLLSMAMGKDISGNPVITDLGKAPHMLVAGTTGSGKSVAVNSMILSMLLKYTPDQLRLILIDPKQLELANYNDIPHLLTPVVTDMKDAVSALNWCVNEMERRYKLMSFLKIRKLADYNRKVEEAIANGEDLIDPTWKPSDSATQERAPRLQPLPSIVIVADEFADMIMQVGKKAEEMITRLAQKSRAAGIHLLLATQRPSVDVITGLIKANIPTRVALRVNSKIDSRTILDAGGAEDLLGHGDMLFLGPGKIEPERVHGAFIGDDEVNRICDAWRERGEPNYVDEILTPFDEEPTSRGFEDGGEGASDRDMLYDQCVAFVLETRKASTSSLQRKFSLGYNRAARIIDQMEENGIVSAMGANGKREILV”, the protein production result is reported as “failed”.
